From US20180327494A1 (SUZHOU ALPHAMAB, published 2018)

B1: PDL1-87 dAb (VHH)
VHH: QVQLQESGGGSVQAGGSLKLSCAASGYIFSSCGMGWYRQAPGKERELVSTISSDGTTSYADSVKGRFTISQDNAKNTLYLQMNSLKTEDTAVYYCVADCPPIPEFTSCSGGYCLSGDYWGQGTQVTVSS
notes: camel heavy chain single domain antibody expressed in E. coli, purified on nickel; also called antibody No. 87; not shown: His tag from expression vector PET32b
B2: PDL1-69 dAb (VHH)
VHH: QVQLQESGGGSVQAGGSLRLSCAVQRNISSSYCMAWFRQAPGKQRERVDKILTTPGNTYLADSVKGRFTISQNNAKSTVYLQMNSLKPEDTAMYYCAADSFQKPTCTVVASWPAFQYWGQGTQVTVSS
notes: camel heavy chain single domain antibody expressed in E. coli, purified on nickel; also called antibody No. 69; not shown: His tag from expression vector PET32b
B3: PDL1-10 dAb (VHH)
VHH: QVQLQESGGGSVQAGGSLRLSCAASGNIVSSYCMGWFRQAPGKERVGVAAIDSDGTTKYADSMKGRFTISKDNAKNTLDLQMNSLKPEDTAMYYCVARLNCPGPVDWVPMFPYRGQGTQVTVSS
notes: camel heavy chain single domain antibody expressed in E. coli, purified on nickel; also called antibody No. 10; not shown: His tag from expression vector PET32b
B4: PDL1-94 dAb (VHH)
VHH: QVQLQESGGGSVQAGGSLRLSCAASLNIFSSYCMGWFRQAPGKQRVGVATIDSDGTTRYVDSVKGRFTISKDNAKNTLDLQMNSLKPEDTAMYYCAARLNCPGPVDWVPMFPYRGQGTQVTVSS
notes: camel heavy chain single domain antibody expressed in E. coli, purified on nickel; also called antibody No. 94; not shown: His tag from expression vector PET32b
B5: PDL1-27 dAb (VHH)
VHH: QVQLQESGGGSVQAGGSLRLSCAASGNISSRRCMAWFRQAPGKERERVANILTTTGNTYLADSVKGRFTISQNNAKSTVYLQMNSLKPEDTAMYYCAADSFHDPTCTVVASSGAFQYWGQGTQVTVSS
notes: camel heavy chain single domain antibody expressed in E. coli, purified on nickel; also called antibody No. 27; not shown: His tag from expression vector PET32b
B6: PDL1-81 dAb (VHH)
VHH: QVQLQESGGGSVQAGGSLRLSCAASGNIIRVRCMAWFRQAPGKERERGPNILTTTISTYLADSVKGRFTISQNNAKSTVYLQMNSLKPEDTAMYYCAADSFGYPTCPGPASSGAFQYWGQGTQVTVSS
notes: camel heavy chain single domain antibody expressed in E. coli, purified on nickel; also called antibody No. 81; not shown: His tag from expression vector PET32b
B7: PDL1-38 dAb (VHH)
VHH: QVQLQESGGGSVQAGGSLRLSCAVSGFISSRRCMGWFRQAPGKERVGVANITGTGNTYLADSVKGRFTISQNNAKSTVYLQMNSLKPEDTAMYYCAADSFPTCTVVASSGAFQYWGQGTQVTVSS
notes: camel heavy chain single domain antibody expressed in E. coli, purified on nickel; also called antibody No. 38; not shown: His tag from expression vector PET32b

Tests used:
[1] = target: T1, PDL1-Fc fusion protein (human); assay: ELISA, ratio of OD on PDL1-Fc to OD on Fc protein
T1 construct: expressed in CHO or HEK293 cells; also called Human PDL1-Fc; recombinant human PDL1-Fc

[2] = target: T1, PDL1-Fc fusion protein; assay: ELISA, PDL1-Fc coated, 100 ng dAb per well, anti-His detection
[3] = target: T2, Fc protein; assay: ELISA, Fc protein coated, 100 ng dAb per well
T2 construct: counter-screen antigen for the Fc moiety of PDL1-Fc

[4] = target: T1, PDL1-Fc fusion protein; assay: ELISA, ratio of OD on PDL1-Fc to OD of blank control
[5] = target: T1, PDL1-Fc fusion protein; assay: competitive ELISA, PDL1-Fc coated, 100 ng dAb and 10 ug PD1-Fc-Biotin (competitor); remaining PD1-Fc-Biotin signal
[6] = target: T3, human PDL1 protein on the cell membrane (human, UniProt Q9NZQ7 19-290); assay: flow cytometry competition: 293-PDL1 cells, single domain antibody plus hPD-1-Fc-biotin 0.3 µg (blocked ligand), SA-PE; right panel
T3 construct: whole, on cells; also used here for Raji-PDL1 cells and for native PDL1 on lung cancer tissue sections; also called Raji-PDL1

[7] = target: T4, Mouse PDL1-Fc protein (mouse); assay: ELISA, mouse PDL1-Fc coated, anti-His detection
T4 construct: expressed in HEK293 cells; also called mouse PDL1-Fc fusion protein; mice PDL1-Fc

[8] = target: T1, PDL1-Fc fusion protein; assay: ELISA: plate coated with the single domain antibody 0.5 µg/well, dilution series of PDL1-Fc, anti-human IgG-Fc-HRP, OD405, four-parameter fit; unit from the axis 'Log Conc(ng/mL)', the concentration of PDL1-Fc
[9] = target: T1, PDL1-Fc fusion protein; assay: SPR, BIAcore X100, PDL1-Fc on CM5 chip, antibody as analyte, 25 C
[10] = target: T1, PDL1-Fc fusion protein; assay: competitive ELISA: PDL1-Fc coated 0.5 µg/well, dilution series of the antibody with PD1-Fc-Biotin 100 µg/mL (blocked ligand), SA-HRP, OD405; the sheet labels it EC50, paragraph 198 calls it IC50; unit from the axis
[11] = target: T1, PDL1-Fc fusion protein; assay: competitive ELISA, PDL1-Fc coated, dilution series of antibody with 100 ug/mL PD1-Fc-Biotin (competitor)
[12] = target: T1, PDL1-Fc fusion protein; assay: ELISA, dAb coated 0.5 ug/well, dilution series of PDL1-Fc, anti-human IgG-Fc-HRP

Binder | OD (PDL1/Fc) [1] | OD (against PDL1) [2] | OD (against Fc) [3] | OD (PDL1/blank) [4] | OD [5] | binding result [6] | binding result [7] | EC50 [8] | Kd [9] | IC50 [10] | IC50 [11] | EC50 [12]
B1 | 18 ratio | 2.24 OD (405 nm) | 0.124 OD (405 nm) | 41.4 ratio | 0.897 OD (405 nm) |  |  |  |  |  |  | 
B2 | 7.1 ratio | 1.17 OD (405 nm) | 0.165 OD (405 nm) | 21.7 ratio |  |  |  |  |  |  |  | 
B3 | 8.63 ratio | 0.854 OD (405 nm) | 0.099 OD (405 nm) | 15.8 ratio | 0.126 OD (405 nm) | binds | no binding (tested: 100 ng per well) |  |  |  |  | 
B4 | 10.3 ratio | 0.875 OD (405 nm) | 0.085 OD (405 nm) | 16.2 ratio |  |  |  |  |  |  |  | 
B5 | 32.8 ratio | 2.62 OD (405 nm) | 0.08 OD (405 nm) | 48.5 ratio | 0.161 OD (405 nm) |  |  | 0.00568 µg/mL | 0.771 nM | 0.917 µg/mL | ~0.917 µg/mL | ~0.005 µg/mL
B6 | 31.5 ratio | 2.68 OD (405 nm) | 0.085 OD (405 nm) | 49.6 ratio | 0.429 OD (405 nm) |  |  |  | 0.548 nM |  |  | 
B7 | 30.5 ratio | 1.98 OD (405 nm) | 0.065 OD (405 nm) | 36.7 ratio |  |  |  |  |  |  |  | 
